Measurements from publication PMC8908386.

Biological target: FLAG-MTA1^C (UniProt Q13330)
Experiment: affinity purification with mass spectrometry

Chain of UniProt Q13330 (Q13330 449-715): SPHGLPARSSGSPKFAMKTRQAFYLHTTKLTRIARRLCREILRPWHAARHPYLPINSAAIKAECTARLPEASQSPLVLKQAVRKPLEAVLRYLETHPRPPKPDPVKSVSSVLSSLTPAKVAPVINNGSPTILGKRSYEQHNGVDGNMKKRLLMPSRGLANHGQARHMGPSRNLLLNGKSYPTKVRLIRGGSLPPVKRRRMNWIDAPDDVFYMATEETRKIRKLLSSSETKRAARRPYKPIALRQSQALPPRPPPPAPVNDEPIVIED

stoichiometry N (RBBP per MTA^C): 2.5
Substance: HA-RBBP4 (from UniProt Q09028 1-425) (natural protein)
